Here are results for seven molecules from article PMC5691656 (Viruses, 2017).

One assay has as its target Noxa BH3 (Homo sapiens) (UniProt Q13794). The assay can be described thus: ITC. The note with it: cited from earlier work.
For another assay, the target named is CNP058 (Canarypox virus, UniProt Q6VZT9). The assay can be described thus: biochemical. Format: binding.
The target of assay [1] is T1, Canarypox virus CNP058 lacking the C-terminal transmembrane domain (residues 1–143) (canarypox virus, UniProt Q6VZT9 1-143).
T1 sequence: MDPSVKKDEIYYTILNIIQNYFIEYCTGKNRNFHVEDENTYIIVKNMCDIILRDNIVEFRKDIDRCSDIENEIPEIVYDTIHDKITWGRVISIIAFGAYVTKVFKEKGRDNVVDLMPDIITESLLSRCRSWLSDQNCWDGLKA
In words: ITC. The note with it: both partners purified.

No end group written: not given here.

Noxa BH3 (Homo sapiens), sequence (Q13794 18-43): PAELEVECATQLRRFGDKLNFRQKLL

FPV039 (from UniProt Q9J5G4): the Kd with Noxa BH3 (Homo sapiens) is 28 nM.

“PEVNEAIVRTIAAQLAEIGDQLDKQIKAKVVNDL [GG_Bid]” registered a dissociation constant (Kd) on CNP058 of 50 nM.

EARTEVQIARKLQCIADQFHRLHIQR [Gallus gallus Bmf BH3 domain peptide (residues 135-160)]: binding in assay [1] was characterised by a dissociation constant (Kd) of 294 nM.

PEVNEAIVRTIAAQLAEIGDQLDKQIKAKVVNDL [Gallus gallus Bid BH3 domain peptide (residues 77-110)]: the Kd in assay [1] amounted to 50 nM.

B1: Gallus gallus Noxa BH3 domain peptide (peptide)
peptide: ERDAVAECALELRRIGDKADLQQKVL
notes: Noxa, Gallus gallus, BH3 domain peptide; source: synthetic peptide (Mimotopes)
For the molecule B1, the affinity in assay [1], expressed as Kd, was 3280 nM.

EEQWAREIGAQLRRMADDLNAQYERR [Homo sapiens Puma BH3 domain peptide (residues 130-155)] had a Kd in assay [1] of 2480 nM.

VPQDASTKKLSECLKRIGDELDSNMELQ [Homo sapiens Bax BH3 domain peptide (residues 50-77)]: in assay [1], the affinity, expressed as Kd, was 326 nM.
